The EC50 is the concentration at which the effect is half-maximal.

The text below walks through data of patent US20110166062A1 (INDIANA UNIVERSITY RESEARCH AND TECHNOLOGY, published 2011).

Bridges are numbered along the chain shown (N, C = ends). Where no end group is shown, it is not given here.

What all share (test): cell-based or functional assay
One test has as its target T1, GIP receptor (UniProt P48546 22-466).
T1 sequence (looked up): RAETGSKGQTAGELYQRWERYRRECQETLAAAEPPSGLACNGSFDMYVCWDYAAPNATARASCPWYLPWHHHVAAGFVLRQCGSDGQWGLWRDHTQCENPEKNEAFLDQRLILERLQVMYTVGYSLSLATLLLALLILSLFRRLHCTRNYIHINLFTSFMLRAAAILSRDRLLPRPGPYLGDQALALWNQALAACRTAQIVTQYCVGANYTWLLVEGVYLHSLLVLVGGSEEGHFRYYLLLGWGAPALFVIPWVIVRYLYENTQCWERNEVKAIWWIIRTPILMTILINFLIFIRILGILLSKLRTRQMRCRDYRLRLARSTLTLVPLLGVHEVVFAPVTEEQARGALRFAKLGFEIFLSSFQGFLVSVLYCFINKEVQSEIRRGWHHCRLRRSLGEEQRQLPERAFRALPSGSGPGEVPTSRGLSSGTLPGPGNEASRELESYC

The next test deals with GLP-1 receptor (UniProt P43220 24-463, limits assumed).
Another test addresses glucagon receptor (UniProt P47871 26-477, limits assumed).

glucagon receptor, sequence (P47871 26-477 limits assumed): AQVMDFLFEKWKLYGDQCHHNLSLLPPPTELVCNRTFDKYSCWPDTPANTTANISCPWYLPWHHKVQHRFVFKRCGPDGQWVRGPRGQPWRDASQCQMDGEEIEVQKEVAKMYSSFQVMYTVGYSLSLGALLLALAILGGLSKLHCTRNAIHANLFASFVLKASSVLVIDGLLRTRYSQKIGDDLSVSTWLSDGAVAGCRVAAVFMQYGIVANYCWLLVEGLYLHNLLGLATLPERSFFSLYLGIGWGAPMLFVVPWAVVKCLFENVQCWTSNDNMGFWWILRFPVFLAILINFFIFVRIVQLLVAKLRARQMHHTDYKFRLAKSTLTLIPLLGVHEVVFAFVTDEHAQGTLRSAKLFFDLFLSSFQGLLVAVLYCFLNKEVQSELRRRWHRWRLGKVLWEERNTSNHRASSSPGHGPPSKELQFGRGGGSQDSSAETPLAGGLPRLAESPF

B1: mt-141 (peptide)
peptide: YSQGTFTSDYSKYMDEQAAKEFVNWLLAGGPSSGAPPPS-NH2
modifications: lactam 16-20; N-terminus assumed
SMILES: CSCC[C@H](NC(=O)[C@H](Cc1ccc(O)cc1)NC(=O)[C@H](CCCCN)NC(=O)[C@H](CO)NC(=O)[C@H](Cc1ccc(O)cc1)NC(=O)[C@H](CC(=O)O)NC(=O)[C@H](CO)NC(=O)[C@@H](NC(=O)[C@H](Cc1ccccc1)NC(=O)[C@@H](NC(=O)CNC(=O)[C@H](CCC(N)=O)NC(=O)[C@H](CO)NC(=O)[C@@H](N)Cc1ccc(O)cc1)[C@@H](C)O)[C@@H](C)O)C(=O)N[C@@H](CC(=O)O)C(=O)N[C@H]1CCC(=O)NCCCC[C@@H](C(=O)N[C@@H](CCC(=O)O)C(=O)N[C@@H](Cc2ccccc2)C(=O)N[C@H](C(=O)N[C@@H](CC(N)=O)C(=O)N[C@@H](Cc2c[nH]c3ccccc23)C(=O)N[C@@H](CC(C)C)C(=O)N[C@@H](CC(C)C)C(=O)N[C@@H](C)C(=O)NCC(=O)NCC(=O)N2CCC[C@H]2C(=O)N[C@@H](CO)C(=O)N[C@@H](CO)C(=O)NCC(=O)N[C@@H](C)C(=O)N2CCC[C@H]2C(=O)N2CCC[C@H]2C(=O)N2CCC[C@H]2C(=O)N[C@@H](CO)C(N)=O)C(C)C)NC(=O)[C@H](C)NC(=O)[C@H](C)NC(=O)[C@H](CCC(N)=O)NC1=O
For the molecule B1, the “EC50” value was determined as 0.747 nM with GIP receptor, 0.16 nM in the test with GLP-1 receptor and 0.15 nM in the test with glucagon receptor. Moreover, the results for the relative activity with GIP receptor, with GLP-1 receptor and in the test with glucagon receptor were 10%, 36.8% and 269%, respectively.

B2: mt-129 (peptide)
peptide: YSQGTFTSDYSKYLDEIHQKDFIAWLMNGGPSSGAPPPS-NH2
modifications: lactam 16-20; N-terminus assumed
SMILES: CC[C@H](C)[C@H](NC(=O)[C@H](Cc1ccccc1)NC(=O)[C@H](CC(=O)O)NC(=O)[C@@H]1CCCCNC(=O)CC[C@H](NC(=O)[C@H](CC(=O)O)NC(=O)[C@H](CC(C)C)NC(=O)[C@H](Cc2ccc(O)cc2)NC(=O)[C@H](CCCCN)NC(=O)[C@H](CO)NC(=O)[C@H](Cc2ccc(O)cc2)NC(=O)[C@H](CC(=O)O)NC(=O)[C@H](CO)NC(=O)[C@@H](NC(=O)[C@H](Cc2ccccc2)NC(=O)[C@@H](NC(=O)CNC(=O)[C@H](CCC(N)=O)NC(=O)[C@H](CO)NC(=O)[C@@H](N)Cc2ccc(O)cc2)[C@@H](C)O)[C@@H](C)O)C(=O)N[C@@H]([C@@H](C)CC)C(=O)N[C@@H](Cc2c[nH]cn2)C(=O)N[C@@H](CCC(N)=O)C(=O)N1)C(=O)N[C@@H](C)C(=O)N[C@@H](Cc1c[nH]c2ccccc12)C(=O)N[C@@H](CC(C)C)C(=O)N[C@@H](CCSC)C(=O)N[C@@H](CC(N)=O)C(=O)NCC(=O)NCC(=O)N1CCC[C@H]1C(=O)N[C@@H](CO)C(=O)N[C@@H](CO)C(=O)NCC(=O)N[C@@H](C)C(=O)N1CCC[C@H]1C(=O)N1CCC[C@H]1C(=O)N1CCC[C@H]1C(=O)N[C@@H](CO)C(N)=O
For B2, the entries for the “EC50” value in the test with GIP receptor, with GLP-1 receptor and with glucagon receptor were 2.88 nM, 4.07 nM and 0.952 nM, respectively. In addition, the results for the relative activity with GIP receptor, in the test with GLP-1 receptor and with glucagon receptor were 2.06%, 1.12% and 17.3%, respectively.

B3: mt-147 (peptide)
peptide: YSQGTFTSDYSIYLDEQAAKEFIAWLLAGGPSSGAPPPS-NH2
modifications: lactam 16-20; N-terminus assumed
SMILES: CC[C@H](C)[C@H](NC(=O)[C@H](Cc1ccccc1)NC(=O)[C@H](CCC(=O)O)NC(=O)[C@@H]1CCCCNC(=O)CC[C@H](NC(=O)[C@H](CC(=O)O)NC(=O)[C@H](CC(C)C)NC(=O)[C@H](Cc2ccc(O)cc2)NC(=O)[C@@H](NC(=O)[C@H](CO)NC(=O)[C@H](Cc2ccc(O)cc2)NC(=O)[C@H](CC(=O)O)NC(=O)[C@H](CO)NC(=O)[C@@H](NC(=O)[C@H](Cc2ccccc2)NC(=O)[C@@H](NC(=O)CNC(=O)[C@H](CCC(N)=O)NC(=O)[C@H](CO)NC(=O)[C@@H](N)Cc2ccc(O)cc2)[C@@H](C)O)[C@@H](C)O)[C@@H](C)CC)C(=O)N[C@@H](CCC(N)=O)C(=O)N[C@@H](C)C(=O)N[C@@H](C)C(=O)N1)C(=O)N[C@@H](C)C(=O)N[C@@H](Cc1c[nH]c2ccccc12)C(=O)N[C@@H](CC(C)C)C(=O)N[C@@H](CC(C)C)C(=O)N[C@@H](C)C(=O)NCC(=O)NCC(=O)N1CCC[C@H]1C(=O)N[C@@H](CO)C(=O)N[C@@H](CO)C(=O)NCC(=O)N[C@@H](C)C(=O)N1CCC[C@H]1C(=O)N1CCC[C@H]1C(=O)N1CCC[C@H]1C(=O)N[C@@H](CO)C(N)=O
Take B3: the “EC50” value with GIP receptor stood at 0.144 nM; with GLP-1 receptor, 0.105 nM; with glucagon receptor, 0.116 nM. The results for the relative activity with GIP receptor, with GLP-1 receptor and with glucagon receptor were 43.1%, 33.9% and 90.5%, respectively.

B4: mt-143 (peptide)
peptide: YSQGTFTSDYSKYLDERRAKEFVNWLLAGGPSSGAPPPS-NH2
modifications: lactam 16-20; N-terminus assumed
SMILES: CC(C)C[C@H](NC(=O)[C@H](CC(C)C)NC(=O)[C@H](Cc1c[nH]c2ccccc12)NC(=O)[C@H](CC(N)=O)NC(=O)[C@@H](NC(=O)[C@H](Cc1ccccc1)NC(=O)[C@H](CCC(=O)O)NC(=O)[C@@H]1CCCCNC(=O)CC[C@H](NC(=O)[C@H](CC(=O)O)NC(=O)[C@H](CC(C)C)NC(=O)[C@H](Cc2ccc(O)cc2)NC(=O)[C@H](CCCCN)NC(=O)[C@H](CO)NC(=O)[C@H](Cc2ccc(O)cc2)NC(=O)[C@H](CC(=O)O)NC(=O)[C@H](CO)NC(=O)[C@@H](NC(=O)[C@H](Cc2ccccc2)NC(=O)[C@@H](NC(=O)CNC(=O)[C@H](CCC(N)=O)NC(=O)[C@H](CO)NC(=O)[C@@H](N)Cc2ccc(O)cc2)[C@@H](C)O)[C@@H](C)O)C(=O)N[C@@H](CCCNC(=N)N)C(=O)N[C@@H](CCCNC(=N)N)C(=O)N[C@@H](C)C(=O)N1)C(C)C)C(=O)N[C@@H](C)C(=O)NCC(=O)NCC(=O)N1CCC[C@H]1C(=O)N[C@@H](CO)C(=O)N[C@@H](CO)C(=O)NCC(=O)N[C@@H](C)C(=O)N1CCC[C@H]1C(=O)N1CCC[C@H]1C(=O)N1CCC[C@H]1C(=O)N[C@@H](CO)C(N)=O
Regarding B4, the figures for the “EC50” value with GIP receptor, in the test with GLP-1 receptor and with glucagon receptor were 2.63 nM, 1.48 nM and 0.086 nM, respectively. The results for the relative activity in the test with GIP receptor, with GLP-1 receptor and with glucagon receptor were 1.82%, 4.53% and 497%, respectively.

B5: mt-140 (peptide)
peptide: YSQGTFTSDYSIYLDEQAAKEFVNWLLAGGPSSGAPPPS-NH2
modifications: lactam 16-20; N-terminus assumed
SMILES: CC[C@H](C)[C@H](NC(=O)[C@H](CO)NC(=O)[C@H](Cc1ccc(O)cc1)NC(=O)[C@H](CC(=O)O)NC(=O)[C@H](CO)NC(=O)[C@@H](NC(=O)[C@H](Cc1ccccc1)NC(=O)[C@@H](NC(=O)CNC(=O)[C@H](CCC(N)=O)NC(=O)[C@H](CO)NC(=O)[C@@H](N)Cc1ccc(O)cc1)[C@@H](C)O)[C@@H](C)O)C(=O)N[C@@H](Cc1ccc(O)cc1)C(=O)N[C@@H](CC(C)C)C(=O)N[C@@H](CC(=O)O)C(=O)N[C@H]1CCC(=O)NCCCC[C@@H](C(=O)N[C@@H](CCC(=O)O)C(=O)N[C@@H](Cc2ccccc2)C(=O)N[C@H](C(=O)N[C@@H](CC(N)=O)C(=O)N[C@@H](Cc2c[nH]c3ccccc23)C(=O)N[C@@H](CC(C)C)C(=O)N[C@@H](CC(C)C)C(=O)N[C@@H](C)C(=O)NCC(=O)NCC(=O)N2CCC[C@H]2C(=O)N[C@@H](CO)C(=O)N[C@@H](CO)C(=O)NCC(=O)N[C@@H](C)C(=O)N2CCC[C@H]2C(=O)N2CCC[C@H]2C(=O)N2CCC[C@H]2C(=O)N[C@@H](CO)C(N)=O)C(C)C)NC(=O)[C@H](C)NC(=O)[C@H](C)NC(=O)[C@H](CCC(N)=O)NC1=O
Consider B5, for which the “EC50” value with GIP receptor was 0.366 nM; with GLP-1 receptor it was 0.068 nM; in the test with glucagon receptor, 0.149 nM. In addition, the relative activity in the test with GIP receptor turned out to be 12.8%; with GLP-1 receptor it was 49.6%; with glucagon receptor it was 131%.

B6: mt-144 (peptide)
peptide: YAQGTFTSDYSIYMDEQAAKEFVNWLLAGGPSSGAPPPS-NH2
modifications: lactam 16-20; N-terminus assumed
SMILES: CC[C@H](C)[C@H](NC(=O)[C@H](CO)NC(=O)[C@H](Cc1ccc(O)cc1)NC(=O)[C@H](CC(=O)O)NC(=O)[C@H](CO)NC(=O)[C@@H](NC(=O)[C@H](Cc1ccccc1)NC(=O)[C@@H](NC(=O)CNC(=O)[C@H](CCC(N)=O)NC(=O)[C@H](C)NC(=O)[C@@H](N)Cc1ccc(O)cc1)[C@@H](C)O)[C@@H](C)O)C(=O)N[C@@H](Cc1ccc(O)cc1)C(=O)N[C@@H](CCSC)C(=O)N[C@@H](CC(=O)O)C(=O)N[C@H]1CCC(=O)NCCCC[C@@H](C(=O)N[C@@H](CCC(=O)O)C(=O)N[C@@H](Cc2ccccc2)C(=O)N[C@H](C(=O)N[C@@H](CC(N)=O)C(=O)N[C@@H](Cc2c[nH]c3ccccc23)C(=O)N[C@@H](CC(C)C)C(=O)N[C@@H](CC(C)C)C(=O)N[C@@H](C)C(=O)NCC(=O)NCC(=O)N2CCC[C@H]2C(=O)N[C@@H](CO)C(=O)N[C@@H](CO)C(=O)NCC(=O)N[C@@H](C)C(=O)N2CCC[C@H]2C(=O)N2CCC[C@H]2C(=O)N2CCC[C@H]2C(=O)N[C@@H](CO)C(N)=O)C(C)C)NC(=O)[C@H](C)NC(=O)[C@H](C)NC(=O)[C@H](CCC(N)=O)NC1=O
For B6, the “EC50” value was 0.48 nM in the test with GIP receptor, 0.036 nM with GLP-1 receptor and 2.27 nM in the test with glucagon receptor. Also, the figures for the relative activity in the test with GIP receptor, with GLP-1 receptor and in the test with glucagon receptor were 18.5%, 142% and 16.8%, respectively.
